Values quoted from earlier work as cited in patent US7208138B2, “Contrast enhancement agent for magnetic resonance imaging” (Duke University, priority 2001, dated 2007).

How the values were obtained:
[1] = time to clearance of one half from the bloodstream
[2] = fraction of the relaxivity of free gadolinium ion
TG = molecular target: T1, TG (Homo sapiens, UniProt P21980)
T1 sequence (P21980 1-687): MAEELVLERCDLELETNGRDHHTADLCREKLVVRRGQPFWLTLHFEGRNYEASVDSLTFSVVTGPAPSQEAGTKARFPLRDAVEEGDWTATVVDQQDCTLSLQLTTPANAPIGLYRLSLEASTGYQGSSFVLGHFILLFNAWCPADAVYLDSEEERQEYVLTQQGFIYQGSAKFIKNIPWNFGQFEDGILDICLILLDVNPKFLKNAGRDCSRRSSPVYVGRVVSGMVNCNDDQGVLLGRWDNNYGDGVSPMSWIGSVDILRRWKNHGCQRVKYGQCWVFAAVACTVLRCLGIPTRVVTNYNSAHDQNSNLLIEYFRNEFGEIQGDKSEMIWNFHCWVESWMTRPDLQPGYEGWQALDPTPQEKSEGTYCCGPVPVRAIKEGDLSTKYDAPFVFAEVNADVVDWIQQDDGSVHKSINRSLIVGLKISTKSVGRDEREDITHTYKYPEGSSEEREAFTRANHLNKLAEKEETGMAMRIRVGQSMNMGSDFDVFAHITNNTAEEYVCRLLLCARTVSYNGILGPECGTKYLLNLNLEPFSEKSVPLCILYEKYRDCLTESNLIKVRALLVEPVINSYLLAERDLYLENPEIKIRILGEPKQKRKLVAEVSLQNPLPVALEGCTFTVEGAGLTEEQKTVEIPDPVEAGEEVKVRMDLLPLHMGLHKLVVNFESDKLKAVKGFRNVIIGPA

fXIIIa = molecular target: T2, fXIIIa (Homo sapiens, UniProt P00488)
T2 sequence (P00488 39-732 limits assumed): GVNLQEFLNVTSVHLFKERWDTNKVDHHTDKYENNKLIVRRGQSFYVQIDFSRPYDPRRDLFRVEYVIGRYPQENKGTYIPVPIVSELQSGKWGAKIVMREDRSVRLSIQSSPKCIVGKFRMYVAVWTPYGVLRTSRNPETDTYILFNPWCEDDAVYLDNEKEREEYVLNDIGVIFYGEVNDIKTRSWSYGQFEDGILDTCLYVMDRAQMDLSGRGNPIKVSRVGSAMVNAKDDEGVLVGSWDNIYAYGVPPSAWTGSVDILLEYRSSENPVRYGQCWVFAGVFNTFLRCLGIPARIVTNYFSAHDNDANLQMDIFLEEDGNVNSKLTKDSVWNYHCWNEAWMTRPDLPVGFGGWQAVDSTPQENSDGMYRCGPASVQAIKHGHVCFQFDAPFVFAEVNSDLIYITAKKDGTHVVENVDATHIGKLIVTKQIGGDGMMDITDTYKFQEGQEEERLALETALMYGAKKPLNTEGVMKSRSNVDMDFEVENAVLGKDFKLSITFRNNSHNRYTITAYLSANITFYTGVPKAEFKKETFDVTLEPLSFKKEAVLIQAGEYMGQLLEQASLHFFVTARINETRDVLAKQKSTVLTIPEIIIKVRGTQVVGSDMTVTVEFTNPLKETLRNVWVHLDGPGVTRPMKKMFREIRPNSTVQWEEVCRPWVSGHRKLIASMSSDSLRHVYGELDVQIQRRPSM

TG crosslinking / recognition (TG) | fXIIIa crosslinking / recognition (fXIIIa) | Molecule | cleared from the bloodstream (½) [1] [min] | relaxivity of the complex relative to free gadolinium ion [2]
 |  | O=C([O-])CN(CCN(CC(=O)[O-])CC(=O)[O-])CCN(CC(=O)[O-])CC(=O)[O-].[Gd+3] [Gd-DTPA] | 20 | about one-half
recognized | recognized | SEQ ID NO: 2: peptide of amino acid sequence NQEQVSP, the TG and fXIIIa crosslinking motif (listed as Homo sapiens) |  | 
inert | inert | SEQ ID NO: 3: peptide NGEQVSP, glycine at position 2; control peptide in crosslinking assays (listed as Homo sapiens) |  | 
